# Reference: patent publication US20190233486A1 (ACCELERON PHARMA, published 2019)
# T1: GDF11 (UniProt O95390 299-407)
# T1 construct: also called growth and differentiation factor-11; BMP11
# T1 sequence (looked up): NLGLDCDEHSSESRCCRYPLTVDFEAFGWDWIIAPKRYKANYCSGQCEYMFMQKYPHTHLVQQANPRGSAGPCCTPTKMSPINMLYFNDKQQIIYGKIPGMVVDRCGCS
# T2: activin A (UniProt P08476 311-426)
# T2 construct: also called ActA
# T2 sequence (looked up): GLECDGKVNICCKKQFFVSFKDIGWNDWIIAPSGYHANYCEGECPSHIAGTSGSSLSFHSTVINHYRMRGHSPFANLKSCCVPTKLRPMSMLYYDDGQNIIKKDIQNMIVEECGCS
# B1: Soluble ActRIIB-Fc WT (64A) (Fc fusion, not shown: a dimerising Fc or GST)
# chain: GRGEAETRECIYYNANWELERTNQSGLERCEGEQDKRLHCYASWANSSGTIELVKKGCWLDDFNCYDRQECVATEENPQVYFCCCEGNFCNERFTHLPEA
# notes: Data reproduced from WO2006/012627
# What was measured:
# GDF11 = target: T1, GDF11; experiment: Biacore SPR; ligand coupled to the chip, receptor-Fc flowed over (data reproduced from WO2006/012627)
# activin A = target: T2, activin A; experiment: as above
binder,measurement,setting,value
B1,Kd,GDF11,260 nM
same,Kd,activin A,180 nM
